Consider 1 molecule from patent US20090075921A1, “Bone/joint disease sensitivity gene and use thereof” (Riken, priority 2004, published 2009).

The subject of assay [1] is normal human articular chondrocytes of knee joint (NHAC). Nature of the assay: Purified recombinant mouse asporin on TGF-β-stimulated gene expression in NHAC. The format is cell-based. Here is the method: NHAC purchased from Cambrex Company was cultured in the growth medium attached to the kit (chondrocyte growth medium, CGM) in a 10-cm petri dish, after which the cells were scraped with 0.05% Trypsin/EDTA, and inoculated to a 12-well plate at 10^5 cells/well; on the following day, the medium was exchanged with DMEM/F12+0.2% FBS; 5 hours later, asporin was added. After the cells were further cultured for 12 hours, TGF-β1 (40 ng/ml) was added; from the cells cultured for 48 hours, total RNA preparation, cDNA synthesis, and real-time PCR were performed according to the methods described in Example 12.
Using a cDNA prepared by the method described in Example 35, the expression of the asporin and TGF-β1 genes was examined by real-time PCR. […] From this, it was shown that asporin negatively regulated the expression of both the asporin and TGF-β1 genes in the presence of TGF-β1.

A further assay relates to ATDC5 cells. In words: bFGF-stimulated BrdU uptake in ATDC5 cells. The format is cell-based, mouse. To be noted: serum-free DMEM/F12, 20 hours. On the procedure:
When ATDC5 cells inoculated in the same manner as Example 40 became subconfluent, the cells were twice washed with serum-free DMEM/F12, serum-free DMEM/F12 was added at 1 ml/well, and the cells were cultured for 24 to 48 hours. Asporin and bFGF were added thereto, and the cells were further cultured for 20 hours, after which BrdU uptake assay was performed using Cell Proliferation ELISA, BrdU (Roche) by the protocol modified for 12-well plate assay as described below. Specifically, BrdU was added to the cells to obtain a final concentration of 1 μM, and the cells were cultured at 37° C. for 4 hours, after which the culture broth was removed by suction, and a fixative solution (FixDenat) was added at 1 ml/well, after which the plate was allowed to stand at room temperature for 30 minutes. The fixative solution was removed by suction, BrdU antibody-HRP (×1000) was added at 0.5 ml/well, and the plate was allowed to stand at room temperature for 1 hour, washed with TBST four times, a substrate solution was added at 0.3 ml/well to proceed the reaction at room temperature for 30 minutes until sufficient color development occurred. 1 M phosphoric acid was added at 0.3 ml/well to step the reaction, transferred to a 96-well plate, and OD415 was measured using a plate reader.

A further assay relates to NHAC. Nature of the assay: Articular chondrocyte differentiation maintenance in redifferentiated NHAC. As to conditions: 7 days, TGF-β1 40 ng/ml, asporin 20 μg/ml where added. The format is cell-based, human. On the procedure: NHAC was redifferentiated by alginate beads culture for 2 weeks using a chondrocyte differentiation medium (CDM) manufactured by Cambrex Company according to the protocol attached. These redifferentiated cells were inoculated to a Lab-Tek II chamber slide (Nunc), a DMEM/F12 containing 5% FBS, ITS (Sigma), and TGF-β1 (40 ng/ml) was added, and the cells were allowed to maintain the degree of differentiation thereof; the effects of addition of asporin (20 μg/ml) on the cell morphology and extracellular proteoglycan accumulation were examined.

Assay [2] deals with Smad2 phosphorylation in NHAC. Nature of the assay: Smad2 phosphorylation by TGF-β1 in NHAC (Western blotting). Type of assay: cell-based, human. As to conditions: asporin 20 μg/ml, TGF-β1 40 ng/ml, 10 minutes. Here is the method:
NHAC was inoculated to a 12-well plate, and cultured in a DMEM/F12 containing 10% FBS and penicillin/streptomycin; when the cells became nearly confluent, the medium was exchanged with the same medium containing 0.2% serum. 12 hours later, asporin (20 μg/ml) was added; still 12 hours later, TGF-β1 (40 ng/ml) was added; 10 minutes later, the cells were lysed with the M-PER reagent (PIERCE). SDA-PAGE was performed using this cell extract, and Western blotting was performed according to the protocol attached to an antibody product of Cell Signaling Company. As the primary antibodies for detection of phosphorylated Smad2 and Smad2 protein, Phospho-Smad2 antibody (Cell Signaling) and rabbit anti-Smad2 (Zymed Laboratories) were used, respectively. As the […], anti-rabbit IgG-HRP (Cell Signaling) was used.

For assay [3], the system named is Smad3-specific gene transcription in NHAC. In words: SBE4-Luc reporter assay of TGF-β1-stimulated Smad3-specific gene transcription in NHAC. Type of assay: cell-based, human. As to conditions: asporin 40 μg/ml, TGF-β1 10 ng/ml, 24 hours. Here is the method: NHAC was inoculated to a 24-well plate at 2.5×10^4 cells/well, cultured in a DMEM/F12 containing 10% FBS and penicillin/streptomycin for 24 hours, and transfected with the SBE4-Luc (Smad binding element ×4-luciferase) plasmid and the pRL-TK vector, which was used as endogenous control. 48 hours later, asporin (40 μg/ml) was added; still 12 hours later, TGF-β1 (10 ng/ml) was added; and the cells were incubated for 24 hours. The luciferase activity in the cells was measured using a PG-DUAL-SP reporter assay system (Toyo Ink).
Background: Reporter assays use an easily measured gene product as a stand-in for the process of interest.

B1: purified mouse asporin: recombinant mouse asporin expressed in Escherichia coli, refolded from insoluble fraction and purified by gel filtration (protein)
chain: DMEDTDDDDNDDDDNSLFPTKEPVNPFFPFDLFPTCPFGCQCYSRVVHCSDLGLTSVPNNIPFDTRMVDLQNNKIKEIKENDFKGLTSLYALILNNNKLTKIHPKTFLTTKKLRRLYLSHNQLSEIPLNLPKSLAELRIHDNKVKKIQKDTFKGMNALHVLEMSANPLENNGIEPGAFEGVTVFHIRIAEAKLTSIPKGLPPTLLELHLDFNKISTVELEDLKRYRELQRLGLGNNRITDIENGTFANIPRVREIHLEHNKLKKIPSGLQELKYLQIIFLHYNSIAKVGVNDFCPTVPKMKKSLYSAISLFNNPMKYWEIQPATFRCVLGRMSVQLGNVGK
modifications: left off: small tags and cut ends
As for B1, the “TGF-β1-stimulated increases in expression of the asporin and TGF-β1 genes” value in assay [1] (NHAC, cDNA of Example 35) is on record as “both suppressed”. In assay [1] (TGF-β1 40 ng/ml, 48 hours), the “TGF-β1-stimulated expression of the type II collagen and aggrecan genes” value was “suppressed the TGF-β1-stimulated expression of the type II collagen and aggrecan genes in NHAC concentration-dependently”. Further, in the assay on ATDC5 cells, the “BrdU uptake in the absence of bFGF” value was “did not change BrdU uptake” and the “BrdU uptake in the presence of bFGF” value is on record as “further enhance the increase in BrdU uptake”. Besides, in the assay on NHAC, the “Safranine-O stainability (extracellular proteoglycan)” value is listed as “decreased” and the cell morphology result is “fibroblast-like morphology”. For the same molecule, in assay [2], the “Smad2 phosphorylation by TGF-β1 stimulation” value was “suppressed the Smad2 phosphorylation by TGF-β1 stimulation”. For the same molecule, the “TGF-β1-stimulated elevation of luciferase activity (SBE4-Luc)” value in assay [3] is reported as “significantly suppressed”.
